This test has as its target recombinant erythropoietin receptor (EPOR-Fc). Nature of the test: SPR; Epo 3 peptide ionically bound to the chip, soluble recombinant EPOR-Fc as analyte; three independent experiments.

Experimental findings from patent publication US20090197801A1 are described below.

recombinant erythropoietin receptor (EPOR-Fc), sequence (P19235 25-250): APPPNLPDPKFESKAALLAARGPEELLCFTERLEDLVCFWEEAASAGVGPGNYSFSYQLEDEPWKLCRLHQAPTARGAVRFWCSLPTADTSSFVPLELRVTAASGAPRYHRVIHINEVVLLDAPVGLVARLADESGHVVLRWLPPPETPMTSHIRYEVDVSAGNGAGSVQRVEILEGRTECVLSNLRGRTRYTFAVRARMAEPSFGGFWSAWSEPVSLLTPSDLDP

B1: Epo3 peptide (Epo-peptide 3) (peptide)
peptide: QLHVDKAVSGLRSLTTLLRA
Take B1: the Kd was determined as 4.48 nM.
